Test results taken from patent publication US20120128758A1.

Target: mAb 2F5
Experiment: cell-based or functional assay

## QQEKNEQELLELDKWASLWN (modifications not checked) [SP62 peptide (gp41 652-671), …]
  IC50 of 2F5 mAb against TND-669S pseudovirus after pre-absorption with 0.3 µM peptide: 0.911 µg/mL
